Data as given in publication PMC7948500, “Comparative interactomes of HSF1 in stress and disease reveal a role for CTCF in HSF1-mediated gene regulation” (The Journal of Biological Chemistry, 2020).

Target: T1, His6-tagged CTCF (human, UniProt P49711 1-727)
T1 construct: CTCF, human, codon-optimized for bacterial expression, in pET-15b; printed both as CTCF-His and His-CTCF; pET-15b usually adds an N-terminal His tag; also called His-CTCF; CTCF-His; source: E. coli BL21 (DE3), purified (Ni-NTA agarose)
T1 sequence (looked up): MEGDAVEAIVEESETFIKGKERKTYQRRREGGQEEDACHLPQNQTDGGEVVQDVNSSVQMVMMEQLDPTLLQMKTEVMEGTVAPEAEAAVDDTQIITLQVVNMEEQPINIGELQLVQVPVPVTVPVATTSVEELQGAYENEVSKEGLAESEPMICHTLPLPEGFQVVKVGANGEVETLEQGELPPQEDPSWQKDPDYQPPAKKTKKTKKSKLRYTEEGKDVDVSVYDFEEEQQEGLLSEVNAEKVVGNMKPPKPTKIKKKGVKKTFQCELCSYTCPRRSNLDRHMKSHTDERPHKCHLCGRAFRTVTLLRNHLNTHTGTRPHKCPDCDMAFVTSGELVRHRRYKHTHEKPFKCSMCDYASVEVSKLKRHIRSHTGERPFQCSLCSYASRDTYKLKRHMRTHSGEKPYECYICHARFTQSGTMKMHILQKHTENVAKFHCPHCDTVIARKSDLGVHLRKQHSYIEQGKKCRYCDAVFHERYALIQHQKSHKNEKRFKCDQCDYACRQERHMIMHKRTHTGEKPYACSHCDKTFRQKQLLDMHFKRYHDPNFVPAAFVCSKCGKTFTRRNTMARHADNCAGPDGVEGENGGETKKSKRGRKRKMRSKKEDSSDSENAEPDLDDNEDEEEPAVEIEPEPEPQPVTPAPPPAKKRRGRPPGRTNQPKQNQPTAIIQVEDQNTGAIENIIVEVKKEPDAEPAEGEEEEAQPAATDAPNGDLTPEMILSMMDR
Assay: pull-down; in vitro STREP pull-down: 5 nM purified His-CTCF alone or with STREP-HSF1 in 1 ml Buffer NP (50 mM NaH2PO4, 300 mM NaCl, pH 8.0), 1 h at 4 °C, MagStrep type 3 XT resin, five washes, eluted with 25 mM desthiobiotin; immunoblot
Conditions: both partners purified

binding result: binds
B1: STREP-HSF1 (natural protein, human, UniProt Q00613 1-529, looked up)
chain: MDLPVGPGAAGPSNVPAFLTKLWTLVSDPDTDALICWSPSGNSFHVFDQGQFAKEVLPKYFKHNNMASFVRQLNMYGFRKVVHIEQGGLVKPERDDTEFQHPCFLRGQEQLLENIKRKVTSVSTLKSEDIKIRQDSVTKLLTDVQLMKGKQECMDSKLLAMKHENEALWREVASLRQKHAQQQKVVNKLIQFLISLVQSNRILGVKRKIPLMLNDSGSAHSMPKYSRQFSLEHVHGSGPYSAPSPAYSSSSLYAPDAVASSGPIISDITELAPASPMASPGGSIDERPLSSSPLVRVKEEPPSPPQSPRVEEASPGRPSSVDTLLSPTALIDSILRESEPAPASVTALTDARGHTDTEGRPPSPPPTSTPEKCLSVACLDKNELSDHLDAMDSNLDNLQTMLSSHGFSVDTSALLDLFSPSVTVPDMSLPDLDSSLASIQELLSPQEPPRPPEAENSSPDSGKQLVHYTAQPLFLLDPGSVDTGSNDLPVLFELGEGSYFSEGDGFAEDPTISLLTGSEPPKAKDPTVS
notes: HSF1, human, codon-optimized for bacterial expression; also called STREP-tagged HSF1; source: E. coli BL21 (DE3), purified (StrepTrap column)
